Source: paper PMC5033645 (Nature structural & molecular biology, 2016)

Legend:
[1] = target: BoNT/A1 receptor-binding domain (HCA), wild type (UniProt P0DPI0 872-1296); test: SPR
[2] = pan-SV2 immunoblot of neuron lysates; details: glycan lost

B1: SUMO-bSV2C: human SV2C-L4 (V473-T567) with 6xHis/SUMO tag, expressed in E. coli (domain or fragment)
chain: VERDKYANFTINFTMENQIHTGMEYDNGRFIGVKFKSVTFKDSVFKSCTFEDVTSVNTYFKNCTFIDTVFDNTDFEPYKFIDSEFKNCSFFHNKT
- Kd [1]: ~86 nM
- koff [1]: 0.11 s⁻¹

B2: SV2B: SV2B-N516A (protein)
parent chain: MDDYRYRDNYEGYAPNDGYYRGNEQNPEEDAQSDVTEGHDEEDEIYEGEYQGIPHPDDVKSKQTKMAPSRADGLRGQADLMAERMEDEEQLAHQYETIIDECGHGRFQWTLFFVLVLALMADGVEVFVVSFALPSAEKDMCLSSSKKGMLGLIVYLGMMAGAFILGGLADKLGRKKVLSMSLAINASFASLSSFVQGYGAFLFCRLISGIGIGGSLPIVFAYFSEFLSREKRGEHLSWLGIFWMTGGIYASAMAWSIIPHYGWGFSMGTNYHFHSWRVFVIVCALPATVSMVALKFMPESPRFLLEMGKHDEAWMILKQVHDTNMRAKGTPEKVFTVSHIKTPKQMDEFIEIQSSTGTWYQRWLVRFMTIFKQVWDNALYCVMGPYRMNTLILAVVWFTMALSYYGLTVWFPDMIRYFQDEEYKSKMKVFFGEHVHGATINFTMENQIHQHGKLVNDKFIKMYFKHVLFEDTFFDKCYFEDVTSTDTYFKNCTIESTTFYNTDLYKHKFIDCRFINSTFLEQKEGCHMDFEEDNDFLIYLVSFLGSLSVLPGNIISALLMDRIGRLKMIGGSMLISAVCCFFLFFGNSESAMIGWQCLFCGTSIAAWNALDVITVELYPTNQRATAFGILNGLCKLGAILGNTIFASFVGITKVVPILLAAASLVGGGLVALRLPETREQVLM
- expression_or_secretion ([2]; control: WT SV2B): decreases

B3: SV2A: SV2A-N573A (protein)
parent chain: MEEGFRDRAAFIRGAKDIAKEVKKHAAKKVVKGLDRVQDEYSRRSYSRFEEEEDDDDFPAPADGYYRGEGAQDEEEGGASSDATEGHDEDDEIYEGEYQGIPRAESGGKGERMADGAPLAGVRGGLSDGEGPPGGRGEAQRRKDREELAQQYETILRECGHGRFQWTLYFVLGLALMADGVEVFVVGFVLPSAEKDMCLSDSNKGMLGLIVYLGMMVGAFLWGGLADRLGRRQCLLISLSVNSVFAFFSSFVQGYGTFLFCRLLSGVGIGGSIPIVFSYFSEFLAQEKRGEHLSWLCMFWMIGGVYAAAMAWAIIPHYGWSFQMGSAYQFHSWRVFVLVCAFPSVFAIGALTTQPESPRFFLENGKHDEAWMVLKQVHDTNMRAKGHPERVFSVTHIKTIHQEDELIEIQSDTGTWYQRWGVRALSLGGQVWGNFLSCFSPEYRRITLMMMGVWFTMSFSYYGLTVWFPDMIRHLQAVDYAARTKVFPGERVEHVTFNFTLENQIHRGGQYFNDKFIGLRLKSVSFEDSLFEECYFEDVTSSNTFFRNCTFINTVFYNTDLFEYKFVNSRLVNSTFLHNKEGCPLDVTGTGEGAYMVYFVSFLGTLAVLPGNIVSALLMDKIGRLRMLAGSSVLSCVSCFFLSFGNSESAMIALLCLFGGVSIASWNALDVLTVELYPSDKRTTAFGFLNALCKLAAVLGISIFTSFVGITKAAPILFASAALALGSSLALKLPETRGQVLQ
- expression_or_secretion ([2]; control: WT SV2A): no change

B4: SV2C (full length, in neurons): SV2C-N559A (protein)
parent chain: MEDSYKDRTSLMKGAKDIAKEVKKQTVKKVNQAVDRAQDEYTQRSYSRFQDEDDDDDYYPPGETYSGEANDDEGSSEATEGHDEEDEIYEGEYQGIPSTNQGKDSIVSVGQPKGDEYKDRRELESERRADEEELAQQYELIIQECGHGRFQWALFFVLGMALMADGVEVFVVGFVLPSAETDLCIPNSGSGWLGSIVYLGMMVGAFFWGGLADKVGRKQSLLICMSVNGFFAFLSSFVQGYGFFLLCRLLSGFGIGGAIPTVFSYFAEVLAREKRGEHLSWLCMFWMIGGIYASAMAWAIIPHYGWSFSMGSAYQFHSWRVFVIVCALPCVSSVVALTFMPESPRFLLEVGKHDEAWMILKLIHDTNMRARGQPEKVFTVNKIKTPKQIDELIEIESDTGTWYRRCFVRIRTELYGIWLTFMRCFNYPVRENTIKLTIVWFTLSFGYYGLSVWFPDVIKHLQSDEYALLTRNVQKDKYANFSINFTMENQVHTGMEYDNGRFLGVKFKSVTFKDSVFKSCTFDDVTSVNTYFKNCTFIDTLFENTDFEPYKFIDSEFQNCSFLHNKTGCQITFDDDYSAYWIYFVNFLGTLAVLPGNIVSALLMDRIGRLTMLGGSMVLSGISCFFLWFGTSESMMIGMLCLYNGLTISAWNSLDVVTVELYPTDRRATGFGFLNALCKAAAVLGNLIFGSLVSITKAIPILLASTVLVCGGLVGLRLPDTRTQVLM
- expression_or_secretion ([2]; control: WT SV2C): decreases
